The values below come from patent US20080299097A1.

One experiment deals with CX3CR1 (human) (UniProt P49238). The experiment is described as follows: cell-based or functional assay.
Another experiment deals with CXCR4 (human) (UniProt P61073). As to the kind of experiment: cell-based or functional assay.
Sequence of UniProt P61073 (P61073 whole entry): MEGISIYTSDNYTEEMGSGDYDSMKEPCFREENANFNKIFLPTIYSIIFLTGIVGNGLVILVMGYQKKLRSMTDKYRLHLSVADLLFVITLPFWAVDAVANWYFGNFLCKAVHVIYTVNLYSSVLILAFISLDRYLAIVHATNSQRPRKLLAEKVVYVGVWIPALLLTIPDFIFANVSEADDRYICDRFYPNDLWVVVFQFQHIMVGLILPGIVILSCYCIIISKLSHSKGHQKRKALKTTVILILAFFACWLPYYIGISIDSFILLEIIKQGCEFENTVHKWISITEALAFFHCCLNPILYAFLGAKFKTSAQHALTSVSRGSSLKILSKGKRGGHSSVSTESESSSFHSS

Sequence of UniProt P49238 (P49238 whole entry): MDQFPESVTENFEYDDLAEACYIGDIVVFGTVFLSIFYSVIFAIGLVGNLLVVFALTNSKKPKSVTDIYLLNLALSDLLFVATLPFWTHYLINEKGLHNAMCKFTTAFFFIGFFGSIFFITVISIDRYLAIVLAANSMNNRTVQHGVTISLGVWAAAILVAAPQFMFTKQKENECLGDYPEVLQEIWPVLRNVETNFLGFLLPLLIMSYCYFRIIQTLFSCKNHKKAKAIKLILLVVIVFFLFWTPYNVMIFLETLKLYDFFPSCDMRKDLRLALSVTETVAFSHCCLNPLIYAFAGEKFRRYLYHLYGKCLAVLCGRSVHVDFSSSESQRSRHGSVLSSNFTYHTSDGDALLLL

Turning to “anti-human CX3CR1 (clone 2A9-1; MBL) (antibody)”, the decrease of neurosphere-induced migration of RS-MSCs and mMSCs with CX3CR1 (human) came out at 40%.

Turning to “anti-human CXCR4 (clone 12G5; R&D Systems) (antibody)”, in the experiment with CXCR4 (human), the decrease of neurosphere-induced migration of RS-MSCs and mMSCs was 40%.
